In US20170298119A1 one finds Kd (fold increase), koff (fold decrease) and kon (fold increase) data, which are given here for one substance.

This experiment has as its target recombinant FcRn protein (Homo sapiens (Human)) (UniProt P55899). In words: BLI (Octet): antibody on anti-CH1 biosensors, recombinant FcRn at pH 6.0; fold change against wild type Motavizumab (p-1342).

Sequence of recombinant FcRn protein (Homo sapiens (Human)) (P55899 24-297 limits assumed, chain 1 of 2): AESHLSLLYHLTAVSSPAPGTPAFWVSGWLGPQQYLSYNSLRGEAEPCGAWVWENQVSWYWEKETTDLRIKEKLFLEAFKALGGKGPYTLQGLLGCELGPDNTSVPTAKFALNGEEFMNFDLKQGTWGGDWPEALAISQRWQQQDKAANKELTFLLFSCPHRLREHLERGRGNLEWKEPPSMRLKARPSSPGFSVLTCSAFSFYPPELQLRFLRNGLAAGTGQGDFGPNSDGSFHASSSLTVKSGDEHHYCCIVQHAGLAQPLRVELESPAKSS
Sequence of recombinant FcRn protein (Homo sapiens (Human)) (beta, as listed by the source limits assumed, chain 2 of 2): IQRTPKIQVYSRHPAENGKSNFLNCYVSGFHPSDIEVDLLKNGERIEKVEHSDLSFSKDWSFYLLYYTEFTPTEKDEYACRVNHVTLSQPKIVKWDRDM

With LS (antibody), the Kd (fold increase) is 9.3 fold, the koff (fold decrease) turned out to be 3.7 fold and the kon (fold increase) was 2.5 fold.
